Laboratory results published in the supplement of paper PMC7877785.
± gives the uncertainty stated by the source.

Experiment: self-splicing fitness, log relative to wild type (ln ratio); higher = more splicing; Tetrahymena group I intron in knt gene, E. coli kanamycin selection, DiMSum; sequences stand for … in CUCUCU…GGAGGGAAAAGUUAUCAGGCAUGCACCUGGUAGCUAGUCUUUAAACCAAUAGAUUGCAUCGGUUUAAAAGGCAAGACCGUCAAAUUGCGGGAAAGGGGUCAACAGCCGUUCAGUACCAAGUCUCAGGGGAAACUUUGAGAUGGCCUUGCAAAGGGUAUGGUAAUAAGCUGACGGACAUGGUCCUAACCACGCAGCCAAGUCCUAAGUCAACAGAUCUUCUGUUGAUAUGGAUGCAGUUCACAGACUAAAUGUCGGUCGGGGAAGAUGUAUUCUUCUCAUAAGAUAUAGUCGGACCUCUCCUUAAUGGGAGCUAGCGGAUGAAGUGAUGCAACACUGGAGCCGCUGGGAACUAAUUUGUAUGCGAAAGUAUAUUGAUUAGUUUUGGAGUACUCGUGGUCG
Summary of the method: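 Colonies from six replicate transformations of E. coli BL21(DE3) were pooled and amplicon-sequenced on an Illumina HiSeq 2500. The library placed an intron with all eight P1ex-region nucleotides randomised inside the knt kanamycin-resistance gene on pET-22b(+), and cells grew overnight at 37°C or 30°C on LB agar with or without 25 μg/mL kanamycin (plus 100 μg/mL carbenicillin, 50 μM IPTG, 0.2% rhamnose). Fitness is the DiMSum error-weighted combination of wild-type-normalised replicate fold changes, kanamycin versus none.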

In the case of CCUGAGCAAUAUUACGUGUA, the “self-splicing fitness (ln)” value (30 °C) is reported as -3.53 ± 0.2 and the “self-splicing fitness (ln)” value (37 °C) is reported as -2.16 ± 0.2.
With ACUGAGCAAUAUUACGUUUA the “self-splicing fitness (ln)” value (30 °C) was -2.52 ± 0.2 and the “self-splicing fitness (ln)” value (37 °C) was -3.08 ± 0.24.
For UUAUAGCAAUAUUACGGGUC, the “self-splicing fitness (ln)” value (30 °C) was -2.3 ± 0.32 and the “self-splicing fitness (ln)” value (37 °C) was -2.47 ± 0.41.
In the case of CGACAGCAAUAUUACGUACG, the “self-splicing fitness (ln)” value (30 °C) is reported as -3.63 ± 0.21 and the “self-splicing fitness (ln)” value (37 °C) is reported as -2.92 ± 0.38.
With CGAUAGCAAUAUUACGAUGU the “self-splicing fitness (ln)” value (30 °C) was -0.22 ± 0.14 and the “self-splicing fitness (ln)” value (37 °C) was -0.614 ± 0.16.
In the case of UCAGAGCAAUAUUACGGAUG, the “self-splicing fitness (ln)” value (30 °C) is reported as -3.87 ± 0.38 and the “self-splicing fitness (ln)” value (37 °C) is reported as -2.06 ± 0.35.
In the case of CCCAAGCAAUAUUACGGCGA, the “self-splicing fitness (ln)” value (30 °C) is reported as -3.88 ± 0.2 and the “self-splicing fitness (ln)” value (37 °C) is reported as -1.69 ± 0.17.
In the case of CGCCAGCAAUAUUACGCGUG, the “self-splicing fitness (ln)” value (30 °C) is reported as -2.06 ± 0.1 and the “self-splicing fitness (ln)” value (37 °C) is reported as -0.717 ± 0.093.
With AUAUAGCAAUAUUACGAGAA the “self-splicing fitness (ln)” value (30 °C) was -1.72 ± 0.34 and the “self-splicing fitness (ln)” value (37 °C) was -0.73 ± 0.36.
In the case of AUAAAGCAAUAUUACGAGCU, the “self-splicing fitness (ln)” value (30 °C) is reported as -0.379 ± 0.06 and the “self-splicing fitness (ln)” value (37 °C) is reported as 0.246 ± 0.086.
With GCUAAGCAAUAUUACGAUGU the “self-splicing fitness (ln)” value (30 °C) was -1.19 ± 0.072 and the “self-splicing fitness (ln)” value (37 °C) was -0.496 ± 0.087.
In the case of AAUGAGCAAUAUUACGGGUG, the “self-splicing fitness (ln)” value (30 °C) is reported as -3.73 ± 0.33 and the “self-splicing fitness (ln)” value (37 °C) is reported as -2.72 ± 0.22.
For UAUCAGCAAUAUUACGCCAC, the “self-splicing fitness (ln)” value (30 °C) was -3.63 ± 0.48.
In the case of GGUGAGCAAUAUUACGUCUC, the “self-splicing fitness (ln)” value (30 °C) is reported as -1.28 ± 0.19 and the “self-splicing fitness (ln)” value (37 °C) is reported as -1.61 ± 0.22.
For GACCAGCAAUAUUACGGAUA, the “self-splicing fitness (ln)” value (30 °C) was -0.244 ± 0.058 and the “self-splicing fitness (ln)” value (37 °C) was 0.0596 ± 0.075.
In the case of AAAGAGCAAUAUUACGCUAC, the “self-splicing fitness (ln)” value (37 °C) is reported as -2.81 ± 0.32.
For UCAUAGCAAUAUUACGGGGA, the “self-splicing fitness (ln)” value (30 °C) was -1.54 ± 0.1 and the “self-splicing fitness (ln)” value (37 °C) was -0.546 ± 0.12.
With GAAAAGCAAUAUUACGCAGA the “self-splicing fitness (ln)” value (30 °C) was -2.53 ± 0.18 and the “self-splicing fitness (ln)” value (37 °C) was -2.2 ± 0.13.
With GGAUAGCAAUAUUACGUGCU the “self-splicing fitness (ln)” value (30 °C) was -1.26 ± 0.085 and the “self-splicing fitness (ln)” value (37 °C) was -1.21 ± 0.12.
For CCUCAGCAAUAUUACGUGCC, the “self-splicing fitness (ln)” value (30 °C) was -2.39 ± 0.17 and the “self-splicing fitness (ln)” value (37 °C) was -2.39 ± 0.31.
In the case of GAUUAGCAAUAUUACGAGGG, the “self-splicing fitness (ln)” value (30 °C) is reported as -2.81 ± 0.29 and the “self-splicing fitness (ln)” value (37 °C) is reported as -2.88 ± 0.29.
In the case of UGACAGCAAUAUUACGUGCA, the “self-splicing fitness (ln)” value (30 °C) is reported as -1.06 ± 0.079 and the “self-splicing fitness (ln)” value (37 °C) is reported as 0.394 ± 0.11.
In the case of UAAAAGCAAUAUUACGUCUG, the “self-splicing fitness (ln)” value (30 °C) is reported as -0.0205 ± 0.058 and the “self-splicing fitness (ln)” value (37 °C) is reported as 0.201 ± 0.075.
For UAUAAGCAAUAUUACGUCCG, the “self-splicing fitness (ln)” value (30 °C) was -0.775 ± 0.11 and the “self-splicing fitness (ln)” value (37 °C) was -0.223 ± 0.15.
In the case of CUGUAGCAAUAUUACGGGAA, the “self-splicing fitness (ln)” value (30 °C) is reported as -1.49 ± 0.29 and the “self-splicing fitness (ln)” value (37 °C) is reported as -2.12 ± 0.35.
With UGUUAGCAAUAUUACGUUUG the “self-splicing fitness (ln)” value (30 °C) was -2.14 ± 0.16 and the “self-splicing fitness (ln)” value (37 °C) was -1.26 ± 0.18.
With CCGUAGCAAUAUUACGAUGA the “self-splicing fitness (ln)” value (30 °C) was -1.48 ± 0.11 and the “self-splicing fitness (ln)” value (37 °C) was -1.13 ± 0.12.
In the case of AUCUAGCAAUAUUACGAGGG, the “self-splicing fitness (ln)” value (30 °C) is reported as -2.92 ± 0.16 and the “self-splicing fitness (ln)” value (37 °C) is reported as -2.18 ± 0.18.
In the case of GAAUAGCAAUAUUACGUGUC, the “self-splicing fitness (ln)” value (30 °C) is reported as -3.72 ± 0.27 and the “self-splicing fitness (ln)” value (37 °C) is reported as -2.58 ± 0.14.
In the case of CCAGAGCAAUAUUACGAGUC, the “self-splicing fitness (ln)” value (30 °C) is reported as -2 ± 0.19 and the “self-splicing fitness (ln)” value (37 °C) is reported as -1.69 ± 0.28.
For UGCGAGCAAUAUUACGCACG, the “self-splicing fitness (ln)” value (30 °C) was -2.22 ± 0.28 and the “self-splicing fitness (ln)” value (37 °C) was -1.98 ± 0.36.
For AAGCAGCAAUAUUACGUACA, the “self-splicing fitness (ln)” value (30 °C) was -1.43 ± 0.091 and the “self-splicing fitness (ln)” value (37 °C) was -0.617 ± 0.11.
In the case of UCCGAGCAAUAUUACGUGGU, the “self-splicing fitness (ln)” value (30 °C) is reported as -2.83 ± 0.29 and the “self-splicing fitness (ln)” value (37 °C) is reported as -2.29 ± 0.21.
With AUGAAGCAAUAUUACGUCUU the “self-splicing fitness (ln)” value (30 °C) was -2.04 ± 0.081 and the “self-splicing fitness (ln)” value (37 °C) was -1.44 ± 0.087.
For AUAUAGCAAUAUUACGGCCU, the “self-splicing fitness (ln)” value (30 °C) was -0.457 ± 0.22 and the “self-splicing fitness (ln)” value (37 °C) was -1.58 ± 0.39.
For UUGCAGCAAUAUUACGAAAC, the “self-splicing fitness (ln)” value (30 °C) was -3.32 ± 0.41 and the “self-splicing fitness (ln)” value (37 °C) was -1.87 ± 0.45.
In the case of GGAAAGCAAUAUUACGCCGU, the “self-splicing fitness (ln)” value (30 °C) is reported as -1.5 ± 0.26 and the “self-splicing fitness (ln)” value (37 °C) is reported as 0.351 ± 0.28.
In the case of CAAGAGCAAUAUUACGUGAA, the “self-splicing fitness (ln)” value (30 °C) is reported as -3.89 ± 0.22 and the “self-splicing fitness (ln)” value (37 °C) is reported as -2.75 ± 0.23.
With CAUCAGCAAUAUUACGGCUU the “self-splicing fitness (ln)” value (30 °C) was -2.91 ± 0.14 and the “self-splicing fitness (ln)” value (37 °C) was -1.75 ± 0.17.
With CAUGAGCAAUAUUACGGGGU the “self-splicing fitness (ln)” value (30 °C) was -3.25 ± 0.3 and the “self-splicing fitness (ln)” value (37 °C) was -3.38 ± 0.33.
For AUACAGCAAUAUUACGUCCG, the “self-splicing fitness (ln)” value (30 °C) was -1.75 ± 0.13 and the “self-splicing fitness (ln)” value (37 °C) was -1.38 ± 0.17.
With CCUUAGCAAUAUUACGUUGU the “self-splicing fitness (ln)” value (30 °C) was -3.12 ± 0.17 and the “self-splicing fitness (ln)” value (37 °C) was -3.27 ± 0.24.
For UCCAAGCAAUAUUACGUGCU, the “self-splicing fitness (ln)” value (30 °C) was -3.49 ± 0.22 and the “self-splicing fitness (ln)” value (37 °C) was -2.76 ± 0.22.
In the case of CACGAGCAAUAUUACGAGUG, the “self-splicing fitness (ln)” value (30 °C) is reported as -3.34 ± 0.17 and the “self-splicing fitness (ln)” value (37 °C) is reported as -1.83 ± 0.18.
In the case of GCAGAGCAAUAUUACGAGGU, the “self-splicing fitness (ln)” value (37 °C) is reported as -2.24 ± 0.31.
For GGCCAGCAAUAUUACGGCAA, the “self-splicing fitness (ln)” value (30 °C) was -0.216 ± 0.082 and the “self-splicing fitness (ln)” value (37 °C) was -0.645 ± 0.087.
In the case of UACAAGCAAUAUUACGCUCA, the “self-splicing fitness (ln)” value (30 °C) is reported as -0.545 ± 0.087 and the “self-splicing fitness (ln)” value (37 °C) is reported as -0.0026 ± 0.12.
With ACGGAGCAAUAUUACGUCAG the “self-splicing fitness (ln)” value (30 °C) was -3.38 ± 0.19 and the “self-splicing fitness (ln)” value (37 °C) was -1.69 ± 0.18.
For AGCAAGCAAUAUUACGAUAA, the “self-splicing fitness (ln)” value (30 °C) was -2.16 ± 0.12 and the “self-splicing fitness (ln)” value (37 °C) was 0.308 ± 0.11.
